From paper PMC139973

B1: CXCR4: N11Q/N176Q (protein)
parent chain: MEGISIYTSDNYTEEMGSGDYDSMKEPCFREENANFNKIFLPTIYSIIFLTGIVGNGLVILVMGYQKKLRSMTDKYRLHLSVADLLFVITLPFWAVDAVANWYFGNFLCKAVHVIYTVNLYSSVLILAFISLDRYLAIVHATNSQRPRKLLAEKVVYVGVWIPALLLTIPDFIFANVSEADDRYICDRFYPNDLWVVVFQFQHIMVGLILPGIVILSCYCIIISKLSHSKGHQKRKALKTTVILILAFFACWLPYYIGISIDSFILLEIIKQGCEFENTVHKWISITEALAFFHCCLNPILYAFLGAKFKTSAQHALTSVSRGSSLKILSKGKRGGHSSVSTESESSSFHSS
B2: CXCR4: N11Q (protein)
parent chain: B1 parent chain
B3: CXCR4: T13A (protein)
parent chain: B1 parent chain
B4: CXCR4: N176Q (protein)
parent chain: B1 parent chain
B5: CXCR4: S178A (protein)
parent chain: B1 parent chain

Experiment: p24 ELISA of virus replication over 12 days
Conditions: glycan lost; control: CXCR4 wt cells

Protein	other: cell permissiveness for HIV-1 (coreceptor function)
B1	no change
B2	no change
B3	no change
B4	no change
B5	no change

Experiment: flow cytometry, PE-labelled mAb 12G5, cell surface
Conditions: glycan lost; control: CXCR4 wt (CXCR4+g1g2)

Protein	expression_or_secretion, percent_of_wt
B4	no change
B5	no change
